From the supplement of paper PMC10567573

B1: TRIM29 (parent)
chain: FAEKGELRKSIFSESRKPTVSIME

Variants of: B1
Test: protein stability index of a GFP-peptide fusion (GPS, HEK-293T) (PSI 1-6); higher = more stable
Settings: c terminus: a fixed tail appended
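Also: lentivirally expressed fusions sorted by FACS into six bins by GFP to DsRed ratio, PSI derived from sequencing read proportions per bin multiplied by bin number.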

In order of rising protein stability index:
1. FAEKGELRKSIWSESRKPTVSIME  1.14
2. FAEKGELRKRIFSESRKPTVSIME  1.35
3. FAEKGELRKSIFIESRKPTVSIME  1.45
4. FAEKGELRKLIFSESRKPTVSIME  1.47
5. FAEKGELRKSIFSRSRKPTVSIME  1.49
6. FAEKGELRKQIFSESRKPTVSIME  1.52
7. FAEKGELRKSMFSESRKPTVSIME  1.53
8. FAEKGELRKCIFSESRKPTVSIME  1.53
9. FAEKGELRKSIFSQSRKPTVSIME  1.54
10. FAEKGELRKSIFSDSRKPTVSIME  1.54
11. FAEKGELRKSIFSMSRKPTVSIME  1.59
12. FAEKGELRKSCFSESRKPTVSIME  1.64
13. FAEKGELRKSIFHESRKPTVSIME  1.64
14. FAEKGELRKSIFCESRKPTVSIME  1.67
15. FAEKGELRKSYFSESRKPTVSIME  1.7
16. FAEKGELRKSIFGESRKPTVSIME  1.7
17. FAEKGELRKSIFNESRKPTVSIME  1.75
18. FAEKGELRKSIFQESRKPTVSIME  1.75
19. FAEKGELRKNIFSESRKPTVSIME  1.76
20. FAEKGELRKSIFSGSRKPTVSIME  1.78
21. FAEKGELRKTIFSESRKPTVSIME  1.82
22. FAEKGELRKHIFSESRKPTVSIME  1.84
23. FAEKGELRKSIFLESRKPTVSIME  1.84
24. FAEKGELRKSIFSFSRKPTVSIME  1.85
25. FAEKGELRKSVFSESRKPTVSIME  1.86
26. FAEKGELRKSIFTESRKPTVSIME  1.87
27. FAEKGELRKSLFSESRKPTVSIME  1.9
28. FAEKGELRKSIFSLSRKPTVSIME  1.91
29. FAEKGELRKAIFSESRKPTVSIME  1.91
30. FAEKGELRTSIFSESRKPTVSIME  1.93
31. FAEKGELRKSIFSNSRKPTVSIME  1.95
32. FAEKGELRKSIFSKSRKPTVSIME  1.99
33. FAEKGELRKGIFSESRKPTVSIME  2
34. FAEKGELRKSIFSASRKPTVSIME  2.01
35. FAEKGELRKSIFFESRKPTVSIME  2.01
36. FAEKGELRKYIFSESRKPTVSIME  2.04
37. FAEKGELRKSIYSESRKPTVSIME  2.04
38. FAEKGELRKSAFSESRKPTVSIME  2.05
39. FAEKGELRKSIFSHSRKPTVSIME  2.05
40. FAEKGELRKSIFYESRKPTVSIME  2.08
41. FAEKGELRKSIFAESRKPTVSIME  2.1
42. FAEKGELRKMIFSESRKPTVSIME  2.12
43. FAEKGELRKEIFSESRKPTVSIME  2.12
44. FAEKGELRKDIFSESRKPTVSIME  2.12
45. FAEKGELRKKIFSESRKPTVSIME  2.17
46. FAEKGELRKSIFRESRKPTVSIME  2.19
47. FAEKGELRKSIFSCSRKPTVSIME  2.21
48. FAEKGELRKSIFKESRKPTVSIME  2.21
49. FAEKGELRKPIFSESRKPTVSIME  2.27
50. FAEKGELRKSIFSSSRKPTVSIME  2.31
51. FAEKGELRKSIFSISRKPTVSIME  2.32
52. FAEKGELRKFIFSESRKPTVSIME  2.32
53. FAEKGELRKWIFSESRKPTVSIME  2.35
54. FAEKGELRYSIFSESRKPTVSIME  2.36
55. FAEKGELRKSILSESRKPTVSIME  2.41
56. FAEKGELRKSIFDESRKPTVSIME  2.42
57. FAEKGELRKVIFSESRKPTVSIME  2.46
58. FAEKGELRKIIFSESRKPTVSIME  2.48
59. FAEKGELRKSPFSESRKPTVSIME  2.51
60. FAEKGELRKSIFWESRKPTVSIME  2.55
61. FAEKGELRKSIFVESRKPTVSIME  2.58
62. FAEKGELRKSIGSESRKPTVSIME  2.59
63. FAEKGELRKSTFSESRKPTVSIME  2.65
64. FAEKGELRKSRFSESRKPTVSIME  2.71
65. FAEKGELRKSIFEESRKPTVSIME  2.71
66. FAEKGELRKSFFSESRKPTVSIME  2.74
67. FAEKGELRVSIFSESRKPTVSIME  2.74
68. FAEKGELRKSIASESRKPTVSIME  2.74
69. FAEKGELRKSIFMESRKPTVSIME  2.76
70. FAEKGELRKSWFSESRKPTVSIME  2.77
71. FAEKGELRKSICSESRKPTVSIME  2.96
72. FAEKGELRKSHFSESRKPTVSIME  2.97
73. FAEKGELRKSSFSESRKPTVSIME  3.09
74. FAEKGELRKSIVSESRKPTVSIME  3.1
75. FAEKGELRKSIFPESRKPTVSIME  3.18
76. FAEKGELRKSKFSESRKPTVSIME  3.22
77. FAEKGELRKSEFSESRKPTVSIME  3.26
78. FAEKGELRKSIFSPSRKPTVSIME  3.31
79. FAEKGELRKSQFSESRKPTVSIME  3.33
80. FAEKGELRKSNFSESRKPTVSIME  3.35
81. FAEKGELRKSIISESRKPTVSIME  3.39
82. FAEKGELRKSINSESRKPTVSIME  3.43
83. FAEKGELRKSIMSESRKPTVSIME  3.49
84. FAEKGELRKSIKSESRKPTVSIME  3.54
85. FAEKGELRKSITSESRKPTVSIME  3.54
86. FAEKGELRKSIRSESRKPTVSIME  3.66
87. FAEKGELRKSDFSESRKPTVSIME  3.69
88. FAEKGELRKSISSESRKPTVSIME  3.69
89. FAEKGELRKSIQSESRKPTVSIME  3.72
90. FAEKGELRKSIESESRKPTVSIME  3.84
91. FAEKGELRKSGFSESRKPTVSIME  3.92
92. FAEKGELRKSIPSESRKPTVSIME  3.96
93. FAEKGELRKSIHSESRKPTVSIME  4.04
94. FAEKGELRKSIDSESRKPTVSIME  4.25
